Experimental data as given in patent publication US20090298167A1 (Pfizer, published 2009).

T1: human gamma common chain expressed on CHO cells (human, UniProt P31785 23-369)
T1 construct: whole, on cells; Control protein; also called human IL-2R-γ common subunit; human gamma (γ) common chain
T1 sequence (looked up): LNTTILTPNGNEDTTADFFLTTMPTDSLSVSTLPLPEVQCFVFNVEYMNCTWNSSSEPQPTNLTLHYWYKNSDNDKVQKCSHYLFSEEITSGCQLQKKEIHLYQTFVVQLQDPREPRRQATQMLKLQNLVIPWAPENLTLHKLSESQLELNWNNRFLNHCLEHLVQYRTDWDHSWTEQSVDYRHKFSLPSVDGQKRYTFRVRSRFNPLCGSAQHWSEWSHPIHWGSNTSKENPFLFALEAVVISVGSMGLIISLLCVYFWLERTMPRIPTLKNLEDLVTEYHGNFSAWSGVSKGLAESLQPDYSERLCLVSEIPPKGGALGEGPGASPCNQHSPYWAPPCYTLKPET


Experiments:
[1] = target: T2, human IL-21R expressed on cells (human, UniProt Q9HBE5 20-538); experiment: cell-based or functional assay
T2 sequence (Q9HBE5 20-538 limits assumed): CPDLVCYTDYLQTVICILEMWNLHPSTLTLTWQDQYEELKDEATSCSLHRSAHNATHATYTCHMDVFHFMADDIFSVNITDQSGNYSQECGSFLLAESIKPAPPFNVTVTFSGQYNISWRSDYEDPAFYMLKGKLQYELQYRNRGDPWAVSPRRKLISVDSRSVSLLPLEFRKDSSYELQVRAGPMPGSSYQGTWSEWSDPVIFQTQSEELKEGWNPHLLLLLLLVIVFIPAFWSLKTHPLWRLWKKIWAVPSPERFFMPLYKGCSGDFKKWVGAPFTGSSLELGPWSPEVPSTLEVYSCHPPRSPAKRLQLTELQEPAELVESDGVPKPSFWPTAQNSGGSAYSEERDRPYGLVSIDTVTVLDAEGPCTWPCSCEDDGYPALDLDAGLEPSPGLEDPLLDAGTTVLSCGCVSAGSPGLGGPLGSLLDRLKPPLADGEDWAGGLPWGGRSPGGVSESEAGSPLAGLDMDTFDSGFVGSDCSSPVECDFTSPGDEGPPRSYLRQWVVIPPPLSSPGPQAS

[2] = target: murine IL-21R expressed on cells (murine, UniProt Q9JHX3 20-529); experiment: cell-based or functional assay
Sequence of murine IL-21R expressed on cells (Q9JHX3 20-529 limits assumed): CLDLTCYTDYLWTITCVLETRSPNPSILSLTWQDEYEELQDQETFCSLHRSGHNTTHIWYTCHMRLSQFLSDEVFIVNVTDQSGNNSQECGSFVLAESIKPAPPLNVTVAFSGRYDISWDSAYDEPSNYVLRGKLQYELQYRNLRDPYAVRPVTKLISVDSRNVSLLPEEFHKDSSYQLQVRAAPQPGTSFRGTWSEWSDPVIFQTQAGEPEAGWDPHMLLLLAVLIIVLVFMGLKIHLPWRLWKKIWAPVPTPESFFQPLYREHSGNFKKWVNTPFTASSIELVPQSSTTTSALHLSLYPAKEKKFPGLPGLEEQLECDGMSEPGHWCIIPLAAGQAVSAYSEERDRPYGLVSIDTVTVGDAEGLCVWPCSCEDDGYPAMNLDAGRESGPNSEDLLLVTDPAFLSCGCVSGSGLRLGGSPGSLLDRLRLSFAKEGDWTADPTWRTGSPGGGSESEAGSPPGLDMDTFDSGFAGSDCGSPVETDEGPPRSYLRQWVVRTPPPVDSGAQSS

[3] = target: T2, human IL-21R expressed on cells; experiment: cell ELISA on transfected CHO cells, 13 nM IgG
Method: (§1) A subset of binding proteins was tested for binding to rat, cynomolgus monkey, human IL-21R, or human IL-2R-γ common subunit expressed transiently on the surfaces of CHO-PA-Dukx cells. Cells were transfected 48 hr prior to the assay. On the day of the assay, cells were washed gently 5× in PBS containing 0.9 mM CaCl₂ and 0.45 mM MgCl₂ (PBS/CaMg) on an automated plate washer (Titertek, Huntsville, Ala.), and blocked for 1 hr at RT in PBS/CaMg/5% nonfat dry milk. Conditioned media from transiently expressed anti-IL-21R IgGs were serially diluted in blocking buffer and added to the cells in the blocked plates for 1 hr at RT. Cells were washed 5× with PBS/CaMg and then incubated with horseradish peroxidase-conjugated anti-human IgG for 1 hr at RT. Cells were then washed 10× in PBS/CaMg and all of the wash buffer was removed. Cells were incubated with 100 μl TMB until the color reaction reached saturation, stopped with 100 μl of 0.18 M H₂SO₄, and read at A450 on a Perkin Elmer ENVISION™ plate reader.

[4] = target: T3, rat IL-21R expressed on cells (rat); experiment: cell ELISA on transfected CHO cells, 13 nM IgG
T3 construct: whole, on cells; Transiently transfected CHO-PA-Dukx cells
Method: as §1

[5] = target: T4, cynomolgus monkey IL-21R expressed on CHO cells (cynomolgus monkey); experiment: cell ELISA on transfected CHO cells, 13 nM IgG
T4 construct: whole, on cells
Method: as §1

[6] = target: T1, human gamma common chain expressed on …; experiment: cell ELISA on transfected CHO cells, 13 nM IgG
Method: as §1

[7] = target: T3, rat IL-21R expressed on cells; experiment: cell-based or functional assay

Human IL-21R-BaF3 Proliferation IC50 [1]	Human IL-21R-TF1 Proliferation IC50 [1]	Murine IL-21R-BaF3 Proliferation IC50 [2]	A450 at 13 nM Ab in cell ELISA [3]	A450 at 13 nM Ab in cell ELISA [4]	A450 at 13 nM Ab in cell ELISA [5]	A450 at 13 nM Ab in cell ELISA [6]	IC50 (nM) experiment 1, rat T cell proliferation [7]	IC50 (nM) experiment 2, rat T cell proliferation [7]	Binder
0.97 nM	3.8 nM	0.08 nM	1.2 A450	1.12 A450	1.35 A450	0.111 A450			AbA (antibody, human IgG1, V domains shown, Full-length human IgG1 / human lambda, transient, conditioned medium; Framework limits derived; also called VHP/VL2) VH: QVQLQESGPGLVKPSETLSLTCAVSGYSISSGYYWGWIRQPPGKGLEWIGSISHTGNTYYNPPLKSRVTISVDTSKNQFSLKLSSVTAADTAVYYCARGGGISRPEYWGQGTLVTVSS VL: SSELTQDPAVSVALGQTVRITCQGDSLRTYYASWYQQKPGQAPVLVIYGKHKRPSGIPDRFSGSSSGNTASLTITGAQAEDEADYYCVARSVVGNPHVLFGGGTQLTVL
							70.5 nM	59.2 nM	AbV (antibody, human IgG1, V domains shown) VH: QVQLQESGPGLVKPSETLSLTCAVSGYSISSGYYWGWIRQPPGKGLEWIGSISHTGNTYYNPPLKSRVTISVDTSKNQFSLKLSSVTAADTAVYYCARFMGFGRPEYWGQGTLVTVSS VL: SSELTQDPAVSVALGQTVRITCQGDSLRTYYASWYQQKPGQAPVLVIYGKHKRPSGIPDRFSGSSSGNTASLTITGAQAEDEADYYCVARSVVGNPHVLFGGGTQLTVL
0.56 nM	2.28 nM	0.04 nM	1.26 A450	1.11 A450	1.42 A450				AbE (antibody, human IgG1, V domains shown, Full-length human IgG1 / human lambda, transient, conditioned medium; Framework limits derived; also called VHP/VL14) VH: QVQLQESGPGLVKPSETLSLTCAVSGYSISSGYYWGWIRQPPGKGLEWIGSISHTGNTYYNPPLKSRVTISVDTSKNQFSLKLSSVTAADTAVYYCARGGGISRPEYWGQGTLVTVSS VL: SSELTQDPAVSVALGQTVRITCQGDSLRTYYASWYQQKPGQAPVLVIYGKHKRPSGIPDRFSGSSSGNTASLTITGAQAEDEADYYCMARSRKGNPHVLFGGGTQLTVL
0.82 nM	3.36 nM	0.03 nM	1.22 A450	0.999 A450	1.28 A450	0.137 A450			AbC (antibody, human IgG1, V domains shown, Full-length human IgG1 / human lambda, transient, conditioned medium; Framework limits derived; also called VHP/VL11) VH: QVQLQESGPGLVKPSETLSLTCAVSGYSISSGYYWGWIRQPPGKGLEWIGSISHTGNTYYNPPLKSRVTISVDTSKNQFSLKLSSVTAADTAVYYCARGGGISRPEYWGQGTLVTVSS VL: SSELTQDPAVSVALGQTVRITCQGDSLRTYYASWYQQKPGQAPVLVIYGKHKRPSGIPDRFSGSSSGNTASLTITGAQAEDEADYYCSSRSRHGNPHVLFGGGTQLTVL
1 nM	3.8 nM	0.224 nM	1.24 A450	1.09 A450	1.21 A450	0.107 A450			AbI (antibody, human IgG1, V domains shown, Full-length human IgG1 / human lambda, transient, conditioned medium; Framework limits derived; also called VHP/VL24) VH: QVQLQESGPGLVKPSETLSLTCAVSGYSISSGYYWGWIRQPPGKGLEWIGSISHTGNTYYNPPLKSRVTISVDTSKNQFSLKLSSVTAADTAVYYCARGGGISRPEYWGQGTLVTVSS VL: SSELTQDPAVSVALGQTVRITCQGDSLRTYYASWYQQKPGQAPVLVIYGKHKRPSGIPDRFSGSSSGNTASLTITGAQAEDEADYYCIARSNKGNPHVLFGGGTQLTVL
0.5 nM	1.59 nM	0.435 nM	1.21 A450	0.702 A450	1.5 A450	0.136 A450			AbN (antibody, human IgG1, V domains shown, Full-length human IgG1 / human lambda, transient, conditioned medium; Framework limits derived; also called VH6/VL24) VH: QVQLQESGPGLVKPSETLSLTCAVSGYSISSGYYWGWIRQPPGKGLEWIGSISHTGNTYYNPPLKSRVTISVDTSKNQFSLKLSSVTAADTAVYYCARFFGFGRPEYWGQGTLVTVSS VL: SSELTQDPAVSVALGQTVRITCQGDSLRTYYASWYQQKPGQAPVLVIYGKHKRPSGIPDRFSGSSSGNTASLTITGAQAEDEADYYCIARSNKGNPHVLFGGGTQLTVL
1.14 nM	3.34 nM	0.421 nM	1.15 A450	1.09 A450	1.33 A450	0.107 A450			AbB (antibody, human IgG1, V domains shown, Full-length human IgG1 / human lambda, transient, conditioned medium; Framework limits derived; also called VHP/VL3) VH: QVQLQESGPGLVKPSETLSLTCAVSGYSISSGYYWGWIRQPPGKGLEWIGSISHTGNTYYNPPLKSRVTISVDTSKNQFSLKLSSVTAADTAVYYCARGGGISRPEYWGQGTLVTVSS VL: SSELTQDPAVSVALGQTVRITCQGDSLRTYYASWYQQKPGQAPVLVIYGKHKRPSGIPDRFSGSSSGNTASLTITGAQAEDEADYYCVSRAVVGNPHVLFGGGTQLTVL
0.98 nM	4 nM	0.079 nM	1.36 A450	1.18 A450	1.34 A450	0.108 A450			AbK (antibody, human IgG1, V domains shown, Full-length human IgG1 / human lambda, transient, conditioned medium; Framework limits derived; also called VH3/VL3) VH: QVQLQESGPGLVKPSETLSLTCAVSGYSISSGYYWGWIRQPPGKGLEWIGSISHTGNTYYNPPLKSRVTISVDTSKNQFSLKLSSVTAADTAVYYCARFMGFGRPEYWGQGTLVTVSS VL: SSELTQDPAVSVALGQTVRITCQGDSLRTYYASWYQQKPGQAPVLVIYGKHKRPSGIPDRFSGSSSGNTASLTITGAQAEDEADYYCVSRAVVGNPHVLFGGGTQLTVL
0.54 nM	2.41 nM	0.304 nM	1.35 A450	1 A450	1.46 A450				AbF (antibody, human IgG1, V domains shown, Full-length human IgG1 / human lambda, transient, conditioned medium; Framework limits derived; also called VHP/VL17) VH: QVQLQESGPGLVKPSETLSLTCAVSGYSISSGYYWGWIRQPPGKGLEWIGSISHTGNTYYNPPLKSRVTISVDTSKNQFSLKLSSVTAADTAVYYCARGGGISRPEYWGQGTLVTVSS VL: SSELTQDPAVSVALGQTVRITCQGDSLRTYYASWYQQKPGQAPVLVIYGKHKRPSGIPDRFSGSSSGNTASLTITGAQAEDEADYYCSTRSRKGNPHVLFGGGTQLTVL
0.65 nM	4.6 nM	0.4 nM	1.22 A450	1.26 A450	1.27 A450	0.126 A450			AbJ (antibody, human IgG1, V domains shown, Full-length human IgG1 / human lambda, transient, conditioned medium; Framework limits derived; also called VH3/VLP) VH: QVQLQESGPGLVKPSETLSLTCAVSGYSISSGYYWGWIRQPPGKGLEWIGSISHTGNTYYNPPLKSRVTISVDTSKNQFSLKLSSVTAADTAVYYCARFMGFGRPEYWGQGTLVTVSS VL: SSELTQDPAVSVALGQTVRITCQGDSLRTYYASWYQQKPGQAPVLVIYGKHKRPSGIPDRFSGSSSGNTASLTITGAQAEDEADYYCNSRDSSGNPHVLFGGGTQLTVL
1.08 nM	4.22 nM	0.125 nM	1.2 A450	0.78 A450	1.45 A450				AbM (antibody, human IgG1, V domains shown, Full-length human IgG1 / human lambda, transient, conditioned medium; Framework limits derived; also called VH6/VL13) VH: QVQLQESGPGLVKPSETLSLTCAVSGYSISSGYYWGWIRQPPGKGLEWIGSISHTGNTYYNPPLKSRVTISVDTSKNQFSLKLSSVTAADTAVYYCARFFGFGRPEYWGQGTLVTVSS VL: SSELTQDPAVSVALGQTVRITCQGDSLRTYYASWYQQKPGQAPVLVIYGKHKRPSGIPDRFSGSSSGNTASLTITGAQAEDEADYYCVTRNRYGNPHVLFGGGTQLTVL
0.94 nM	3.64 nM	0.327 nM	1.35 A450	1.1 A450	1.32 A450				AbH (antibody, human IgG1, V domains shown, Full-length human IgG1 / human lambda, transient, conditioned medium; Framework limits derived; also called VHP/VL19) VH: QVQLQESGPGLVKPSETLSLTCAVSGYSISSGYYWGWIRQPPGKGLEWIGSISHTGNTYYNPPLKSRVTISVDTSKNQFSLKLSSVTAADTAVYYCARGGGISRPEYWGQGTLVTVSS VL: SSELTQDPAVSVALGQTVRITCQGDSLRTYYASWYQQKPGQAPVLVIYGKHKRPSGIPDRFSGSSSGNTASLTITGAQAEDEADYYCVARAVRGNPHVLFGGGTQLTVL
